Two molecules from patent US20230151373A1, “CHIMERIC POLYPEPTIDE FOR REGULATING IMMUNE CELLS” (STICHTING HET NEDERLANDS KANKER INSTITUUT-ANTONI VAN …, priority 2019, published 2023) can be followed below.

In this assay the test system is primary human T cells modified with the HLA class I restricted CDK4 TCR. The assay is described as follows: Cytokine release and degranulation assay, CDK4 TCR T cells co-cultured with CDK4 peptide loaded T2 cells. The class given is cell-based. On the procedure: For use as T cell targets, T2 and CBH 5477 cells were loaded with the indicated concentrations of HLA-A*02:01 restricted mutant CDK4 peptide (ALDPHSGHFV), HLA A*02:01 restricted NY-ESO-1 peptide (SLLMWITQA), or HLA-DR1 restricted CMV peptide (KYQEFFWDANDIYRI) in IMDM for 1 hour at 37° C. Cells were then washed once and used in co-culture experiments.
T cells and NK cells were pretreated with the indicated concentrations of asunaprevir (MedChemExpress, #HY-14434), grazoprevir (MedChemExpress, #HY-15298), dTAG-13 (Tocris, #6605) or DMSO control in T cell media (RPMI/10% human serum/penicillin-streptomycin, 100 IU/ml IL2 and 5 ng/ml IL15) or NK cell media (RPMI/8% FCS/penicillin-streptomycin, 500 IU/ml IL2), respectively, for 24 hours before co-culture experiments. 100,000 T cells or NK cells and 100,000 of indicated tumor cells were mixed in T cell or NK cell media supplemented with golgi-plug (1:1000 dilution, BD, #51-2301KZ) and anti-LAMP1-APC (1:100 dilution, Biolegend, #328620) in the presence of indicated drugs or DMSO control in 96-well plates and incubated for 5 hours at 37° C.
After incubation, cells were washed once with PBS and stained with IR dye (Invitrogen, #L34976) at 1:400 dilution for 5 minutes at 4° C. Subsequently, cells were washed once with FACS buffer (PBS plus 0.5% BSA) and stained with anti-CD8-PerCP Cy5.5 (1:20 dilution, BD, #341050), anti-CD4 BV711 (1:50 dilution, Biolegend, #317440), anti-murine constant TCR-PE (in experiments with transduced TCRs, 1:200 dilution, BD, #553172) or cetuximab-PE (in experiments with transduced CAR construct containing truncated human EGFR reporter, 1:200 dilution, R&D Systems, #FAB9577P) for 20 minutes at 4° C. Cells were then washed once with FACS buffer and fixed with BD fixation and permeabilization solution (#51-2090KZ) for 20 minutes at 4° C.
Following permeabilization, cells were washed twice with BD perm/wash buffer (#51-2091KZ) and stained with anti-IFNγ-BV421 (1:100 dilution, BD, #564791), anti-IL-2-PE-Cy7 (1:100 dilution, BD, #560707) and anti-TNFα-BV650 (1:100 dilution, Biolegend, #502938) diluted in perm/wash buffer for 20 min at 4° C. Cells were then washed twice, resuspended in 100 μl FACS buffer and analyzed directly on a Fortessa Special Order analyzer. Data were analyzed using FlowJo and Prism 7 software.

[1] abbreviates: T cells co-cultured with 10 nM peptide loaded T2 tumor cells, relative to vector control.

B1: Zap70-PD1: human Zap70 fragment (1-264 aa), a GGS linker, the human PD1 intracellular domain (192-288 aa) (protein)
chain: MPDPAAHLPFFYGSISRAEAEEHLKLAGMADGLFLLRQCLRSLGGYVLSLVHDVRFHHFPIERQLNGTYAIAGGKAHCGPAELCEFYSRDPDGLPCNLRKPCNRPSGLEPQPGVFDCLRDAMVRDYVRQTWKLEGEALEQAIISQAPQVEKLIATTAHERMPWYHSSLTREEAERKLYSGAQTDGKFLLRPRKEQGTYALSLIYGKTVYHYLISQDKAGKYCIPEGTKFDTLWQLVEYLKLKADGLIYCLKEACPNSSASNASGGGSCSRAARGTIGARRTGQPLKEDPSAVPVFSVDYGELDFQWREKTPEPPVPCVPEQTEYATIVFPSGMGTSSPARRGSADGPRSAQPLRPEDGHCSWPL
Take B1: under setting [1], the “reduction in percentage responding cells, IFNγ” value stood at 104 fold; the “reduction in percentage responding cells, IL-2” value was determined as 110 fold; the “reduction in percentage responding cells, TNFα” value was 81 fold; the “reduction in percentage responding cells, cell surface LAMP1” value was found to be 40 fold.

B2: Zap70 2×SH2: the Zap70 SH2 domains without inhibitory tail; human Zap70 (P43403, 1-264 aa) (protein, UniProt P43403 1-264, looked up, fragment)
chain: MPDPAAHLPFFYGSISRAEAEEHLKLAGMADGLFLLRQCLRSLGGYVLSLVHDVRFHHFPIERQLNGTYAIAGGKAHCGPAELCEFYSRDPDGLPCNLRKPCNRPSGLEPQPGVFDCLRDAMVRDYVRQTWKLEGEALEQAIISQAPQVEKLIATTAHERMPWYHSSLTREEAERKLYSGAQTDGKFLLRPRKEQGTYALSLIYGKTVYHYLISQDKAGKYCIPEGTKFDTLWQLVEYLKLKADGLIYCLKEACPNSSASNASG
Turning to B2, the “effect of construct expression on T cell cytokine production and degranulation” value (no drug, T2 cells loaded with CDK4 neoantigen) is recorded as “modest inhibition of T cell functions”.
